Test results taken from article PMC7195491.
Several values for one entry are separate records, joined by “and”; a condition that tells them apart may be missing. Identical values can stand only once. Like-named read-outs stand apart in the source and are kept apart here.

Assays:
[1] = target: DIP-α (Drosophila melanogaster); assay: SPR; Biacore T100, CM4 chip; DIPs and DIP mutants immobilised by amine coupling (760-980 RU), Dprs and Dpr mutants as analytes (three-fold dilution series, up to 81 μM, in some cases up to 27 or 9 μM); 25 °C; 10 mM Tris-HCl pH 7.2, 150 mM NaCl, 1 mM EDTA, 1 mg/mL BSA, 0.01% Tween-20; equilibrium fit, 1:1 model; for KDs > 300 μM a lower limit is listed
[2] = target: DIP-α (Dpr Interacting Protein alpha), extracellular region (Drosophila melanogaster) (UniProt Q9W4R3); assay: SPR; Biacore T100, CM4 chip; DIPs and DIP mutants immobilised by amine coupling, Dprs as analytes; 25 °C; 10 mM Tris-HCl pH 7.2, 150 mM NaCl, 1 mM EDTA, 1 mg/mL BSA, 0.01% Tween-20; duplicate responses fit globally to a 1:1 model; Rmax fixed for KDs > 100 μM, lower limit listed for KDs > 300 μM
[3] = target: DIP-β (isoformG), extracellular region (Drosophila melanogaster); assay: as above
[4] = target: DIP-γ (Dpr Interacting Protein gamma), extracellular region (Drosophila melanogaster) (UniProt Q9VAR6); assay: as above
[5] = target: DIP-α G4A {G74A}, extracellular region (Drosophila melanogaster) (UniProt Q9W4R3); assay: as above
[6] = target: DIP-α K10Q S32D {K81Q S133D}, extracellular region (Drosophila melanogaster) (UniProt Q9W4R3); assay: as above
[7] = target: DIP-α A7K {A78K}, extracellular region (Drosophila melanogaster) (UniProt Q9W4R3); assay: as above
[8] = target: DIP-α I16A {I91A}, extracellular region (Drosophila melanogaster) (UniProt Q9W4R3); assay: as above
[9] = target: DIP-α A11T {A82T}, extracellular region (Drosophila melanogaster) (UniProt Q9W4R3); assay: as above
[10] = target: DIP-α N19D {N94D}, extracellular region (Drosophila melanogaster) (UniProt Q9W4R3); assay: as above
[11] = target: DIP-α K10Q G4S {K81Q G74S}, extracellular region (Drosophila melanogaster) (UniProt Q9W4R3); assay: as above
[12] = target: DIP-α G4L {G74L}, extracellular region (Drosophila melanogaster) (UniProt Q9W4R3); assay: as above
[13] = target: DIP-α K10Q {K81Q}, extracellular region (Drosophila melanogaster) (UniProt Q9W4R3); assay: as above
[14] = target: DIP-γ (Drosophila melanogaster); assay: SPR; Biacore T100, CM4 chip; DIPs and DIP mutants immobilised by amine coupling (760-980 RU), Dprs and Dpr mutants as analytes (three-fold dilution series, up to 81 μM, in some cases up to 27 or 9 μM); 25 °C; 10 mM Tris-HCl pH 7.2, 150 mM NaCl, 1 mM EDTA, 1 mg/mL BSA, 0.01% Tween-20; equilibrium fit, 1:1 model; for KDs > 300 μM a lower limit is listed
[15] = target: DIP-α K10Q G4S, extracellular region (Drosophila melanogaster); assay: AUC; sedimentation equilibrium, 25 °C, 10 mM Bis-Tris pH 6.6, 150 mM NaCl, UV 280 nm, global fit (HeteroAnalysis); dimer to monomers; two runs (n 1, 2) and their average
[16] = target: DIP-α K10Q, extracellular region (Drosophila melanogaster); assay: as above
[17] = target: DIP-α K10Q S32D {K81Q S133D}, extracellular region (Drosophila melanogaster) (UniProt Q9W4R3); assay: AUC; sedimentation equilibrium, 25 °C, 10 mM Bis-Tris pH 6.6, 150 mM NaCl, detection at 280 nm; global fit (HeteroAnalysis); dimer to monomers; mean of two independent measurements
[18] = target: DIP-α K10Q S32D, extracellular region (Drosophila melanogaster); assay: AUC; sedimentation equilibrium, 25 °C, 10 mM Bis-Tris pH 6.6, 150 mM NaCl, UV 280 nm, global fit (HeteroAnalysis); dimer to monomers; two runs (n 1, 2) and their average
[19] = target: DIP-α K10Q {K81Q}, extracellular region (Drosophila melanogaster) (UniProt Q9W4R3); assay: AUC; sedimentation equilibrium, 25 °C, 10 mM Bis-Tris pH 6.6, 150 mM NaCl, detection at 280 nm; global fit (HeteroAnalysis); dimer to monomers; mean of two independent measurements
[20] = target: DIP-α (Dpr Interacting Protein alpha), extracellular region (Drosophila melanogaster) (UniProt Q9W4R3); assay: SPR; Biacore T100, CM4 chip; DIPs and DIP mutants immobilised by amine coupling, Dprs as analytes; 25 °C; 10 mM Tris-HCl pH 7.2, 150 mM NaCl, 1 mM EDTA, 1 mg/mL BSA, 0.01% Tween-20; duplicate responses fit globally to a 1:1 model; Rmax fixed for KDs > 100 μM, lower limit listed for KDs > 300 μM; remark: listed apart in the source
[21] = target: DIP-α K10Q G4S {K81Q G74S}, extracellular region (Drosophila melanogaster) (UniProt Q9W4R3); assay: AUC; sedimentation equilibrium, 25 °C, 10 mM Bis-Tris pH 6.6, 150 mM NaCl, detection at 280 nm; global fit (HeteroAnalysis); dimer to monomers; mean of two independent measurements

DIP-γ (Dpr Interacting Protein gamma), extracellular region (Drosophila melanogaster), sequence (Q9VAR6 entry or part of it): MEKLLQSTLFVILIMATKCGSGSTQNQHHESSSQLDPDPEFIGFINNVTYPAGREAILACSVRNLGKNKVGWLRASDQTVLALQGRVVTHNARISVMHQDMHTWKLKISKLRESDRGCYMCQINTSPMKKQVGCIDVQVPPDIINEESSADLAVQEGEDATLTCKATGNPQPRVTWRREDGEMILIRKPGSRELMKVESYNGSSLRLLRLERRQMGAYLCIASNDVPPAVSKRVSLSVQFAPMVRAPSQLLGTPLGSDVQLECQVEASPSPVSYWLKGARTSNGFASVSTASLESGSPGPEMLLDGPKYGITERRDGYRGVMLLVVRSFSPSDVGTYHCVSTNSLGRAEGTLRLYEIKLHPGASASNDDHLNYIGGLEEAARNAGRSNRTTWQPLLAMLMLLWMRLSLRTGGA

Substance: Dpr10 V31K (domain or fragment)
- fold increase of KD over wild-type Dpr10 [1]: 10 fold

Substance: Dpr10 Q26D {Q138D}, extracellular region (from UniProt M9PF17 1-362) (domain or fragment)
- Kd [2]: 19.3 µM

Substance: Dpr11 K31V E29Q G10L {K207V E205Q G157L}, extracellular region (from UniProt Q8MRE6 1-360) (domain or fragment)
- Kd [3]: 27.8 µM
- Kd [4]: 17.6 µM

Substance: Dpr6 (Defective proboscis extension response 6), extracellular region (from UniProt M9PC40 1-390) (domain or fragment)
- Kd [5]: 1.1 µM
- Kd [6]: 26.2 µM
- Kd [7]: 0.46 µM
- Kd [8]: 80.1 µM
- Kd [9]: 10.1 µM
- Kd [10]: 1.05 µM
- Kd [11]: 101 µM
- Kd [12]: 23.5 µM
- Kd [13]: 18.4 µM

Substance: Dpr6 (domain or fragment)
- Kd [1]: 2 µM

Substance: Dpr11 K31V,E29Q (domain or fragment)
- Kd [14]: 131 µM

Substance: DIP-α K10Q G4S, extracellular region (domain or fragment)
- Kd [15]: 52 µM and 40.6 µM
- Kd ([15]; mean): 46.3 µM

Substance: Dpr10 V31K Q29E {V144K Q142E}, extracellular region (from UniProt M9PF17 1-362) (domain or fragment)
- Kd [3]: 71.6 µM

Substance: DIP-α K10Q, extracellular region (domain or fragment)
- Kd [16]: 17.8 µM and 21.6 µM
- Kd ([16]; mean): 19.7 µM

Substance: DIP-α K10Q S32D {K81Q S133D}, extracellular region (from UniProt Q9W4R3 1-554) (domain or fragment)
- Kd [17]: 64.4 µM
- stoichiometry N [17]: 2

Substance: Dpr10 V31K Q29E (domain or fragment)
- fold increase of KD over the V31K single mutant [1]: 2 fold

Substance: Dpr11 K31V (domain or fragment)
- Kd [14]: 22.7 µM

Substance: DIP-α K10Q S32D, extracellular region (domain or fragment)
- Kd [18]: 60.6 µM and 68.3 µM
- Kd ([18]; mean): 64.5 µM

Substance: DIP-α K10Q {K81Q}, extracellular region (from UniProt Q9W4R3 1-554) (domain or fragment)
- Kd [19]: 19.7 µM
- stoichiometry N [19]: 2

Substance: Dpr11 K31V {K207V}, extracellular region (from UniProt Q8MRE6 1-360) (domain or fragment)
- Kd [20]: > 300 µM
- Kd [3]: > 300 µM

Substance: Dpr11 K31V E29Q {K207V E205Q}, extracellular region (from UniProt Q8MRE6 1-360) (domain or fragment)
- Kd [20]: > 300 µM
- Kd [3]: > 300 µM

Substance: Dpr10 V31K {V144K}, extracellular region (from UniProt M9PF17 1-362) (domain or fragment)
- Kd [3]: 52.3 µM

Substance: DIP-α K10Q G4S {K81Q G74S}, extracellular region (from UniProt Q9W4R3 1-554) (domain or fragment)
- Kd [21]: 46.3 µM
- stoichiometry N [21]: 2
